Measured values reported in paper PMC3758421.

Key:
Experiment in all cases: Spinach sensor fluorescence
thrombin = thrombin (human, UniProt P00734;P00734 315-363;364-622)
streptavidin = streptavidin (UniProt P22629 25-183)
[1] = target: MS2 phage coat protein (MCP) (MS2 phage, UniProt P03612 2-130)
Chain of MS2 phage coat protein (MCP) (P03612 2-130): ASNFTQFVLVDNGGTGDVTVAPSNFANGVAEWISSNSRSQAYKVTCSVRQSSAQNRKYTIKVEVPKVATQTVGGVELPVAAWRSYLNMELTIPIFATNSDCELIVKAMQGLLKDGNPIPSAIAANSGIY

Chain of streptavidin (P22629 25-183): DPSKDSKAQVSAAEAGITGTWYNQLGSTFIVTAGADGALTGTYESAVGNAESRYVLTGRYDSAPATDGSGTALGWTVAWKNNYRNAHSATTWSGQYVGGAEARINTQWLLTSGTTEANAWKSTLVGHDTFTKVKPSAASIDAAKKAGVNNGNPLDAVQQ

B1: thrombin sensor (Spinach fusion) (structured_RNA)
RNA: GACGCGACUGAAUGAAAUGGUGAAGGACGGGUCCAGGAACAAAGCUGAAGUACUUACCUUGUUGAGUAGAGUGUGAGCUCCGUAACUAGUCGCGUC
In the case of B1, the binding signal (thrombin) is reported as 6.9 fold fluorescence increase.

B2: streptavidin sensor (Spinach fusion) (structured_RNA)
RNA: GACGCGACUGAAUGAAAUGGUGAAGGACGGGUCCACGACCGACCAGAAUCAUGCAAGUGCGUAAGAUAGUCGCGGGCCGGGGUUGUUGAGUAGAGUGUGAGCUCCGUAACUAGUCGCGUC
B2 was tested, and the binding signal (streptavidin) was 10.3 fold fluorescence increase.

B3: MCP sensor (Spinach fusion with MS2E) (structured_RNA)
RNA: GACGCGACUGAAUGAAAUGGUGAAGGACGGGUCCAAUGAGGAUCACCCAUUUGUUGAGUAGAGUGUGAGCUCCGUAACUAGUCGCGUC
With B3 the binding signal [1] was 41.7 fold fluorescence increase.
